Measurements taken from patent publication US20150202273A1 (SHENZHEN INNOVATION IMMUNOTECHNOLOGY, published 2015).

Target: HLA-A2 molecules on T2 cells (human)
Assay: cell-based or functional assay

IFN-γ release (ELISA) by expanded peptide-specific T cells in response to T2 cells pre-loaded with titrated peptide (0-20 µg/ml) [µg/mL]	Binder
5	ILANIYLLV [PSGR3]
5	WLAFPLCSL [PSGR4]
5	VILANIYLLV [PSGR14]
